experiment: label from the status in PepcDB records
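Also: failed if final PepcDB status was selected cloned or expressed and not failed if soluble or beyond.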

Row | Sequence | protein production
1 | MKLIQMSDHIYKLNIQTTVGIPIQINTWFIVNDNDVYIIDTGMDDYAELQITIAKSLGNPKGIFLTHGHLDHINGAKRISEALKIPIFTYKNELPYINGELPYPNKTHTENTGVQYIVKPLETNTNLPFNYYLTPGHAPGHVIYFHNQDKILICGDLFISDAQHLHIPIKKFTYNMTENIKSGQIIDNLCPKLITTSHGDDLYYSDDIYSIYKFKYEELEHHHHHH | failed
2 | MKLIRLIASPILMYVLAGVYALVLAIATFVENSSGPAVAREYFYYAPWFILLQLLQAVNLLAMFLQGGYFKRISKGSLIFHGALVFIWLGAAVTHYAGVTGIMHIREGETVDRMMRDEGAGMGNASLPFSVTLDDFRLKRYPGSHSPMSYESDLVIKKENEAPLQATVRMNKVIEVDGYRLFQSSFDPDEQGTVLSVSYDRPGMQITYIGYFLLFAGFVLTLFSKKSRFGRLRRELGEMKKNAPFCLLLFLGLSGALGTQASYAQETLSSSQLPCIPAPHARKFGSLVLLNPNGRLEPVNSYTSAILRKLYGADKLNSINSDQFFLNLLAFPDEWGGYPFIKVDNKDILQRFGRDGKYIAWQDVFDADGNYVLTDEVNAIYAKSASERKRMDSDLLKLDESVNIVYRIMQHQLLPLFPDENDVQGKWYSAGDEQTVFHDKDSLFVSKIMDWYIYELGNGVRTNNWKEADKIVDMMHIFQQAKSKTPAIDNQRVKAELLYNQLNLFFWCRLAYLILGGILLFIACGEIIADFKWGSRLSSILIVLLIAAFLAHTTGVLLRWYISERAPWANAYESMICTSWLLVGGGLLFARRFRILPALAGLLGGIMLFVAGLNHLNPEITPLVPVLQSYWLMSHVAIIMIGYVFFALCALTGLFNLILMNLLSATNRVKLLFRIREFTLLNEMAMILGLFFMTAGTFLGAIWANVSWGRYWGWDPKETWALISIVVYALVLHIRFIPLLKGKTTWCYNLLSVVSILSIIMTWFGVNYYLSGLHSYGKTEGGDLLLWIWGAGLCVVLALALFARRRLKKYS | failed
3 | MKLISQAVKNYLPELSLRQKQTNNIIFITFWSQFSVYALNTVLVLFLTRPLIAQGLGYSQAKAYAFIGVTQATGYLMPILGGYMADNIVGVRRSILLGSIMLACAYLLVMLSGYTISSLGDQLFIIAFAFIPATNSLLMGTASSMVSHIYSDDAIKAKSAMTYYYMAINVGALLATMIAPVLLESRYGPLSVLTLTFIGKSIAALNFAKRYSIYDSVIWGMDKSKFSNQGLLRLVAYIAAIYSLTLYAYTHVYIASTLIGAGCAIGILWFLIKTIMLKGETRSKQMIAVLLIIEAIVFFIIYNQMNSTLVLFAENNSDLSFLWFKISPAQYQMLNPLLILLIGSQLPRFYRFFSRFTIPYQFAAGTILSGIALLVMAFAAQNAINGLVNGNYIALTYILISIAELWVSAIGLSMIGLYCDARAIAFAMGVWYLASSMSNAISGRIAGWVAIPENINSALESLPYYKNYYLIMGISALGLGILMYFVAYYLHKIMKRRGIELA | failed
4 | MKLKKEKKMAEFTFEIEEHLLTLSENEKGWTKEINRVSFNGAPAKFDIRAWSPDHTKMGKGITLSNEEFQTMVDAFKGNLEHHHHHH | not failed
5 | MKLLENSRFEALSSQLCVETGDAQIIGRIESYSCKMAGDDKHMFKQFCQEGEPHVLEALSPPQSSSAPSPNLLGKSGEDAENPLSDKCCRKTLFYLITTLNESFRPDYDFSAARAHEFSREPSANWVANSVNSSLYSAVGEQFNTLGPELWTAIDQEINLQGCDIYSYNPDLDSDPFGEEGSLWSFNYFFYNKKLKRILFFTCRSVSVLSSYGRSGLDNELDMELDDEEELDGFMEDRIPRALCV | failed
6 | MKLLFVSPGWPRGRLWGELGFKFPSLSLAALAAVTPESWDVALCDENIEPLDLNSDADLVAITAMTPQAPQAYRIAAAFRARGKRVVMGGFHASNLPEEALQHVDAVVVGEGEVVWPQLLADLERGELQRIYRAATALAMEAIPVARRELFQGKRYLFTNTLQTTRGCPFDCEFCSVTAFYGRRYRKRPVDNVLAELELLRRRNSFAFFVDDNLVADRTYALSLFAGMKGMGFKWLSHAPIDFAHDREFLRAAGEAGCVGMFVGFESLNQDALAAMGKVTNTARSYLEDAQAFRDNGIGILGSFVLGCDNDTPAVFEGLLRFCEEARLEAAIFPILTPYPGTEVRRRLEAEGRIISSDWQDYDMEHVTFLPRGMSVDELQQGYDWLNRSFYSLPSMYRRIFKAHRSVQVFAPMNFGFRSAIRRKGRVA | failed
7 | MKLMVNHQTHYHYSEVARNSIQYIKMIPQSSPHQLVHYWDISVPGERIMKRDAFDNLWITSSQRFDYQNLTIMAQGIVELNLQNSGCHDSVVLPHVFLQPTPATLCDAEMLNFALEIVKTKDVSSLINLSQKILERITYSPYSTNVQTTAIDAFYAAQGVCQDHAHVMIAMCRALNLPARYVSGYLYDYNSPHLASHAWAEVYVDHEWHCFDVSNQIFVPKTHIYVAIGRDYFDVAPIRGIRENGGIEEMISTVQVLAC | failed
8 | MKLNIKDVVLNYNIIGEGEPIIILHGYSVDHTIMFGCMENLFSDESRYKRIYVDLPGMGKSTSSDSIKTSDNMLDIILEFIMKVTKGENFLLVGESYGGYLSRGVVYKIREKVNGLFLICPAIIPDFNKRTVPEHVILAYDEKLMSKLNKEEAEEFSSMSVVQNEKIYLRFKEEVMSGIKLGNQDFLERLQREGYGFSFDVDKLPQKFDKPTLMLLGKQDASVGYKDAWNILDNYPRATFAVLDMAGHNLQIEQEDIFNLLGKEWISRTYREKDY | failed
9 | MKLSAAGVEKIKPTDKRQEIPDSLCVGLYLIVQPTGKKGWQVRYRHGGVHRRMSLGAFPVLSLAGARERARQTLAAASAGTDPAAEVKAAKAPKLDGDRDKIKTLIGQFDKRHLSKLKSGAVVRRELERHVVSAWGERDVHQIGKRDVIDLLDGIADSGRVVTANRVRAYLAKFFGWCVERDILATSPAAGVKPAGKETSRARVLTDDEIRWFWTACEAEGFPWGPFGKVLLLTGQRLNEVAQMTDSEIRGDLWHLTADRTKNGRAHDVPLTGAVRAALDEVERVTDEEGRVRFIFTTTGRTPVSGFFKARAVLAEAMVGIAQKERGEPVEIPRWTFHDLRRTAATGMARLGIPVRVTEAVLNHVSGTGGGIVAVYQRHDYADEKRQALEAWARFVLSLVEGEADNVVRLQHG | failed
10 | MKLSILKNSMNSGKAVLFIVTGIIGLLIAIGTMLLFSFYPTEQNVSQSILYITFALWTVGWVLGPIIAGGDGILRSEYFVLLPFTSYKLARALLVVAFIGLGPIVSLIAFIGLFIYAARVSLSATIVAIPAIILQLIFVVLLSKVVVSIIGETLKSRIGMEVGAMLFGFIIAFLNVGWYVLPTINKMTLSDSTLLYMFPSSWAILAVEYAIQSNWLLVLVFLIVLTILCGLLFFIWATLLMKSTETKKIEGRITTNKHRKALRFFSETKIGATITKELKSWRRDPQRGRFLRMGIWIGVFYGILVTSANISYLMPWAGIIMIVFTSMFSCNIYGFDGSALWLTLTTPDAERIDVRGRQFAWLIAVGPIAILATIIFTISSGLTFIYPWVFTVIPALLGGAAGLIMLFSVFNVVPITDPHRRGRGSVISGDDMNASKMFITTWLMMVMVMATTIPALLVVWLGTLLHVQFLQWLGVLTGICTGMFFAWWFGRIAYLKIEKSGSELLFEMKNGMKTLRDDNKKKGNRKAVELPKKKLAIVVLLVFMGIFFLIHQSVVPLIFEIFSIDDKVRLFFLPRYVPHIVRIPIIILFAILGIASLYKAILIKKKHGKEHRFIKDEM | failed
11 | MKLSSLLNSENSEKNHLQIQQSGQRRIDRMAQSGVGKSSLWSLAEVGWTAGPVTFLAAQGGYYLGFGTWLPNENLIFFVGYTVLMGLIAVLVKFIYKATKGQELDDAKEQLLLVIGSLPDFILSVRDLTLSRMEPESRRYESARILLQKSDLGPQWLTLAVNSIIDSPVIAQAVANIEIYWRAGMYSRIHDINQELSTEISAALASLEPDRPRLARLLEQRLQGKKNTLRSGVEREPFFIERIFSAIEEDNEDIMGLSDVEEVLTLAFELLSGRRIPMLVVNCVGSSQLTIATKKLEKERSKYRIARARGYSQLLALANFLSDSNLLDYSTVAERLPSSDLLQICLETIDRLCQNICDDIGCVQKRENVDMRALKLNHSVLIKALELYQQAYRSSAMVLNEHADFLKDINSWQRINLKYADANTKVSVTGKQGLHIIERQIQLTDADKITVVKKIAHHFDSQSILSKGLRNRTQQSNWQVSNQHVRAAKQLAIDLALALNPCVFISLPEVQGAIYSSNAVDLGSFEPGLSTTTKVGWGESVAKEVKKDMVKASEQIAQAIHRYYGICLGDKELDFMHQTYGMNKEHVIDYYLENEQGEQSSNVFEPRSPLMIPEVKFAWRKTLTLYRQHI | failed
12 | MKLSVCTITFRHHLLCFSEIVEWTQRNGFDGVELWGAHARGLMRTHPEYDADWLRSYGLSVPMLSDYLPTDGDITDTRHRAIELCRIAQHWSARKIRTFAGNRPSAQLSREQRRALAGRIGEIAGIVHDHGIRLLVETHPNTLADNVDSTLGLLADANHPGLGINFDALHVWEGGDDPVLARRTLADFIGHYHLKNVRSRDELGVFAPENVYSAAGSRDGMVPLFDGAMDYEGFLASLADETDAEASLEWFGHDCFETLARDRLAIFARSISTRGRRGSAGTQQARLAESRAAGRAASSKGPSCI | failed
13 | MKLTIIRLQHFSDQDRIDLGKIWPSQDLSTLTLDENHRLYAAHFNERLLGAVRVTLRGVEGELSDLCVREVTRRRGVGQYLVEETLRDNPAINSWRVADHGVEDRGVMAAFMQALGFSAQQNGWEKH | failed
14 | MKLVICAGPATTGKTAVLRHAIGKLIGRGFKPAFLKIDVQYAEEDEQFAREFAIPTRKTYSGDLCPDHCTVMVLGEALEWAGRQGADVLLVETAGLCLRCSPYVDGGLGVIVLEATSGMNLPLKVGPMLSLADVAVVTKIDRISQAEREVFRARIQDVAPGVRIREANALHGIGIDPLVDQIQATPDVDATLSLRGNPPVGTCTICVGKKEIGWKAHFGVVRSLENQTFYRGELEHHHHHH | failed
15 | MKLYQHIETLWDYMQLKQDLKPADCLFVMCSNDVRVAEHAAALYHQKLAPLIVFSGGEGRFTDGLFEKSEAETFADIARLAGVPSDAILVETRSTNSGENVRFTEQLLKEKGIQCESIILVQKPFMERRAIATFEKQWQSPYSQVQVSSTAHPFFEYINEDMPLMMVLEALMEDFSRVKSYPEKGFQTKQDIPNQVDSSYQVLLERFGFDLVLEHHHHHH | failed
16 | MKMIETSLASASAALRDRVDEILAAATREDGCAPLSESFLNGLRRADDGHVHSCVMDSHDQVVGVAARDGDSAEVVVDPAFRRQGYGSFLIRHVVSQGVKNVWAHGDGAGAKAVAKALQLEQTRQLLVMAVEGDRLVESAQLQVPSGFRVLALNEAYESIPDIEQQWLRVNNEAFEWHPEQGGWDSARLAQARDTQWFRESDVLFLIDTAKRTVAGFHWTKRHGDLAEGADGEVYVVGLGSAYRRRGLGDLLIRMGLHHLEYEHARRVILYVEGDNESARRAYDALGFHVVESHVTYSPQSSS | failed
17 | MKMIQFWFDFASTYSYPAAMQIRQLKDEYRFSLHPFLLGGIFQKQGLNDSPFNAYPVKGQYMWRDLERICQKLDLKFHRPVLFPQNGLLAARIACQYASAPWIFDFICSVYQANFVQNLDIGQPETISQILQNMQLDCNDIIMTSTTDTAKQTLKQNGMIAESLHIFGAPSFVVENELFWGQDRLQDAIDWSQR | failed
18 | MKMRKLVKDFGDDYTLIQDSQEVKAILEYIGSEEEPHALFVKVGDGDYEEVWGIDSFVPYNFLEAYRLK | not failed
19 | MKMTVVGFWGGFPEAGEATSGYLFEHDGFRLLVDCGSGVLAQLQKYITPSDIDAVVLSHYHHDHVADIGVLQYARLITSATKGQLPELPIYGHTFDENGFHSLTHEPHTKGIPYNPEETLQIGPFSISFLKTVHPVTCFAMRITAGNDIVVYSADSSYIPEFIPFTKDADLFICECNMYAHQEAAKAGHMNSTEVASIAKDANVKELLLTHLPHTGNPADLVTEAKQIFSGHITLAHSGYVWNS | not failed

— a protein production outcome set (Wang et al. 2014)
